Measured values reported in publication doi:10.1101/2020.07.01.182642v1.

System: Nc1ncnc2c1ncn2[C@@H]1O[C@H](COP(=O)(O)OP(=O)(O)OP(=O)(O)O)[C@@H](O)[C@H]1O
Assay: Omnia kinase assay
Assay type: biochemical, Homo sapiens
Settings: Sox peptide co-substrate, pH 7.5, 25 mM MgCl2, 25 °C

CLK3 (R134-T484) (Homo sapiens)
Km: 58.9 ± 20.3 µM

CLK3 (R134-T484) (Homo sapiens; A319V)
Km: 8.6 ± 4.2 µM
